From the supplement of paper PMC10567573

B1: TNNI2 (parent)
chain: DWRKNIEEKSGMEGRKKMFESES
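Note: lentivirally expressed fusions sorted by FACS into six bins by GFP to DsRed ratio, PSI derived from sequencing read proportions per bin multiplied by bin number.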

Variants of: B1
Experiment: protein stability index of a GFP-peptide fusion (GPS, HEK-293T) (PSI 1-6); higher = more stable
Details: c terminus: native
With F19H the protein stability index was 3.76.
Work on F19Q yielded a protein stability index of 4.78.
Variant F19Y has a protein stability index of 2.22.
F19M gave a protein stability index of 2.82.
F19K gave a protein stability index of 5.64.
In the case of F19R, the protein stability index is reported as 4.97.
Work on F19W yielded a protein stability index of 1.48.
F19E showed a protein stability index of 5.03.
In the case of F19C, the protein stability index is reported as 4.42.
In the case of F19D, the protein stability index is reported as 5.43.
Work on F19I yielded a protein stability index of 4.22.
F19N showed a protein stability index of 5.46.
Variant F19S has a protein stability index of 5.6.
Variant F19T has a protein stability index of 4.8.
Variant F19P has a protein stability index of 4.51.
With F19A the protein stability index was 5.06.
For M12Y, the protein stability index was 2.94.
Work on M12S yielded a protein stability index of 2.5.
M12R gave a protein stability index of 2.74.
In the case of M12T, the protein stability index is reported as 3.47.
With M12Q the protein stability index was 2.02.
In the case of M12W, the protein stability index is reported as 1.39.
Variant M12V has a protein stability index of 2.39.
Work on R15I yielded a protein stability index of 1.71.
Variant R15Y has a protein stability index of 2.15.
In the case of R15F, the protein stability index is reported as 1.62.
Work on R15A yielded a protein stability index of 2.59.
In the case of R15K, the protein stability index is reported as 3.5.
For R15P, the protein stability index was 2.98.
With R15L the protein stability index was 2.56.
Work on R15T yielded a protein stability index of 2.7.
In the case of R15H, the protein stability index is reported as 2.15.
R15E showed a protein stability index of 2.8.
Variant R15G has a protein stability index of 1.76.
In the case of R15Q, the protein stability index is reported as 3.12.
R15N gave a protein stability index of 2.77.
In the case of R15M, the protein stability index is reported as 1.51.
Variant R15D has a protein stability index of 2.44.
In the case of E22H, the protein stability index is reported as 4.
With E22I the protein stability index was 3.3.
E22G showed a protein stability index of 5.04.
In the case of E22F, the protein stability index is reported as 4.22.
Variant E22L has a protein stability index of 3.17.
In the case of E22D, the protein stability index is reported as 3.81.
With E22K the protein stability index was 4.67.
With E22M the protein stability index was 3.29.
E22C showed a protein stability index of 3.71.
Work on K16I yielded a protein stability index of 1.83.
For K16T, the protein stability index was 2.07.
Work on K16V yielded a protein stability index of 2.32.
For K16Y, the protein stability index was 1.24.
K16E gave a protein stability index of 2.39.
K16N showed a protein stability index of 1.95.
Work on K16L yielded a protein stability index of 2.85.
For K16H, the protein stability index was 1.85.
Variant K16D has a protein stability index of 3.19.
K16M gave a protein stability index of 1.92.
Variant K16Q has a protein stability index of 2.19.
For K16W, the protein stability index was 1.85.
K16C showed a protein stability index of 2.19.
With K16S the protein stability index was 1.98.
With K16R the protein stability index was 2.3.
For K16P, the protein stability index was 2.72.
In the case of K16G, the protein stability index is reported as 1.78.
In the case of G14T, the protein stability index is reported as 1.41.
In the case of G14N, the protein stability index is reported as 2.22.
With G14R the protein stability index was 2.55.
G14F showed a protein stability index of 1.93.
G14H gave a protein stability index of 1.94.
G14E gave a protein stability index of 1.38.
In the case of G14P, the protein stability index is reported as 2.56.
Work on G14C yielded a protein stability index of 2.56.
G14M gave a protein stability index of 1.99.
For G14I, the protein stability index was 1.6.
Variant G14K has a protein stability index of 1.31.
G14W showed a protein stability index of 2.78.
With G14D the protein stability index was 1.67.
G14V gave a protein stability index of 1.08.
In the case of G14A, the protein stability index is reported as 1.43.
Variant G14S has a protein stability index of 1.63.
In the case of M18H, the protein stability index is reported as 2.7.
For M18D, the protein stability index was 6.
For M18W, the protein stability index was 1.66.
M18G gave a protein stability index of 5.42.
Work on M18K yielded a protein stability index of 2.78.
M18L showed a protein stability index of 1.13.
M18C showed a protein stability index of 3.89.
Variant M18N has a protein stability index of 4.47.
Variant M18E has a protein stability index of 4.34.
For M18I, the protein stability index was 1.98.
Work on M18R yielded a protein stability index of 4.45.
Variant M18V has a protein stability index of 2.39.
In the case of M18Y, the protein stability index is reported as 1.85.
For M18A, the protein stability index was 2.26.
Work on M18P yielded a protein stability index of 4.59.
In the case of M18S, the protein stability index is reported as 4.36.
M18T gave a protein stability index of 4.9.
Variant E13S has a protein stability index of 1.77.
With E13V the protein stability index was 2.33.
Variant E13D has a protein stability index of 2.52.
With E13Q the protein stability index was 2.03.
Variant E13M has a protein stability index of 2.03.
E13W showed a protein stability index of 1.81.
In the case of E13G, the protein stability index is reported as 3.41.
For E13N, the protein stability index was 2.75.
E13K gave a protein stability index of 2.94.
E13H showed a protein stability index of 2.19.
Work on E13Y yielded a protein stability index of 2.15.
Work on E13P yielded a protein stability index of 2.34.
E13A showed a protein stability index of 2.01.
E13L gave a protein stability index of 2.47.
For E13T, the protein stability index was 3.7.
Variant E13F has a protein stability index of 1.73.
Work on E13C yielded a protein stability index of 2.78.
E13R showed a protein stability index of 2.72.
In the case of E20A, the protein stability index is reported as 2.88.
In the case of E20D, the protein stability index is reported as 3.65.
In the case of E20S, the protein stability index is reported as 4.04.
With E20M the protein stability index was 2.75.
In the case of E20Y, the protein stability index is reported as 3.81.
Variant E20F has a protein stability index of 4.56.
Work on E20L yielded a protein stability index of 2.33.
In the case of E20P, the protein stability index is reported as 5.16.
In the case of E20T, the protein stability index is reported as 2.94.
E20K showed a protein stability index of 2.92.
Variant E20C has a protein stability index of 2.67.
E20H gave a protein stability index of 4.26.
With E20R the protein stability index was 2.22.
For E20W, the protein stability index was 3.71.
E20I gave a protein stability index of 2.89.
E20G gave a protein stability index of 4.73.
In the case of E20Q, the protein stability index is reported as 3.54.
Variant E20V has a protein stability index of 2.79.
Variant S21Y has a protein stability index of 4.05.
Variant S21R has a protein stability index of 3.41.
S21K showed a protein stability index of 3.49.
Work on S21Q yielded a protein stability index of 4.96.
S21F showed a protein stability index of 4.49.
In the case of S21L, the protein stability index is reported as 3.92.
With S21C the protein stability index was 3.19.
S21A gave a protein stability index of 1.5.
S21N showed a protein stability index of 3.39.
S21M gave a protein stability index of 3.92.
S21E gave a protein stability index of 5.2.
Variant S21W has a protein stability index of 3.35.
For S21T, the protein stability index was 4.47.
With S21P the protein stability index was 1.37.
In the case of S21H, the protein stability index is reported as 2.9.
Variant S21V has a protein stability index of 2.39.
Work on S21D yielded a protein stability index of 5.47.
In the case of K17M, the protein stability index is reported as 2.42.
Work on K17C yielded a protein stability index of 2.41.
Variant K17Q has a protein stability index of 2.39.
K17V showed a protein stability index of 3.07.
Work on K17Y yielded a protein stability index of 2.6.
For K17T, the protein stability index was 2.39.
With K17N the protein stability index was 2.56.
For K17H, the protein stability index was 3.84.
With K17P the protein stability index was 3.08.
Work on K17A yielded a protein stability index of 2.25.
Variant K17F has a protein stability index of 2.48.
In the case of K17S, the protein stability index is reported as 2.82.
With K17R the protein stability index was 1.97.
Work on K17I yielded a protein stability index of 3.32.
K17E gave a protein stability index of 2.36.
In the case of K17L, the protein stability index is reported as 2.01.
K17D showed a protein stability index of 2.83.
